{"source": "paper PMC9975078", "target": "Heterogeneous nuclear ribonucleoprotein A2/B1 (HNRNPA2B1), endogenous (human (endogenous in U2OS))", "sequence (P22626 whole entry)": "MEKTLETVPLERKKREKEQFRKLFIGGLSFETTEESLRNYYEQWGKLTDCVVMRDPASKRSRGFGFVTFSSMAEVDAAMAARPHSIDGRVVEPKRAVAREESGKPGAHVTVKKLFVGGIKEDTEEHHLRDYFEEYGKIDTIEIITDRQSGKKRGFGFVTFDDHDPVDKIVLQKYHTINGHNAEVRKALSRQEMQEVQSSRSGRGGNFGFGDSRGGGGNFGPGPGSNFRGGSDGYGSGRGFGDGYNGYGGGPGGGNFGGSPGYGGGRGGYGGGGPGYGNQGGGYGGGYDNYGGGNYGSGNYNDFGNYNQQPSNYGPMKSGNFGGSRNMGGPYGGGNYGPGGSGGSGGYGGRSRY"}
{"substance": "Replication Protein A subunit RPA70 (RPA1), endogenous (from UniProt P27694 1-616) (natural protein)", "values": [{"measurement": "percent of RPA1 bound by HNRNPA2B1", "result": 43, "unit": "%"}]}
